Measurements taken from the Immune Epitope Database (IEDB).
pIC50, pKd: −log10 of the molar value.

How the values were obtained:
HLA-A*02:01 [1] = assay: IEDB peptide-MHC binding, purified MHC/competitive/fluorescence; ≥ and ≤ were set here for values at or beyond the usual limits of such assays
HLA-A*03:01 [2] = assay: as above
HLA-A*11:01 = assay: as above
HLA-A*01:01 [3] = assay: as above
HLA-A*24:02 = assay: as above
HLA-B*51:01 [4] = assay: IEDB peptide-MHC binding, purified MHC/direct/fluorescence; filed as Kd, often an IC50 or EC50 that approximates it; ≥ and ≤ were set here for values at or beyond the usual limits of such assays
HLA-B*35:01 = assay: IEDB peptide-MHC binding, purified MHC/competitive/radioactivity; filed as Kd, often an IC50 or EC50 that approximates it; ≥ and ≤ were set here for values at or beyond the usual limits of such assays; details: source organism: Dengue virus 4 Philippines/H241/1956
HLA-B*53:01 = assay: as above; details: source organism: Dengue virus 4 Philippines/H241/1956
HLA-B*15:01 [5] = assay: IEDB peptide-MHC binding, purified MHC/competitive/fluorescence; ≥ and ≤ were set here for values at or beyond the usual limits of such assays
HLA-B*08:01 = assay: as above
HLA-A*01:01 [6] = assay: IEDB peptide-MHC binding, purified MHC/direct/fluorescence; filed as Kd, often an IC50 or EC50 that approximates it; ≥ and ≤ were set here for values at or beyond the usual limits of such assays; details: source organism: Zaire ebolavirus
HLA-A*68:02 = assay: as above; details: source organism: Zaire ebolavirus
HLA-A*02:11 = assay: as above; details: source organism: Zaire ebolavirus
HLA-A*24:03 = assay: as above; details: source organism: Zaire ebolavirus
HLA-A*02:19 = assay: as above; details: source organism: Zaire ebolavirus
HLA-A*23:01 = assay: as above; details: source organism: Zaire ebolavirus
HLA-A*02:12 = assay: as above; details: source organism: Zaire ebolavirus
HLA-A*03:01 [7] = assay: as above; details: source organism: Zaire ebolavirus
HLA-A*02:03 = assay: as above; details: source organism: Zaire ebolavirus
HLA-A*02:16 = assay: as above; details: source organism: Zaire ebolavirus
HLA-B*27:03 = assay: IEDB peptide-MHC binding, purified MHC/competitive/fluorescence; filed as Kd, often an IC50 or EC50 that approximates it; ≥ and ≤ were set here for values at or beyond the usual limits of such assays; details: source organism: Zaire ebolavirus
HLA-A*69:01 = assay: as above; details: source organism: Zaire ebolavirus
HLA-A*26:01 = assay: as above; details: source organism: Zaire ebolavirus
HLA-A*02:01 [8] = assay: as above; details: source organism: Zaire ebolavirus
HLA-B*51:01 [9] = assay: as above; details: source organism: Zaire ebolavirus
HLA-B*46:01 = assay: as above; details: source organism: Zaire ebolavirus
HLA-B*39:01 = assay: as above; details: source organism: Zaire ebolavirus
HLA-B*57:01 = assay: as above; details: source organism: Zaire ebolavirus
HLA-B*58:01 = assay: IEDB peptide-MHC binding, purified MHC/direct/fluorescence; filed as Kd, often an IC50 or EC50 that approximates it; ≥ and ≤ were set here for values at or beyond the usual limits of such assays; details: source organism: Zaire ebolavirus
HLA-A*29:02 = assay: as above; details: source organism: Zaire ebolavirus
HLA-B*15:01 [10] = assay: as above; details: source organism: Zaire ebolavirus
HLA-B*27:05 = assay: as above; details: source organism: Zaire ebolavirus
HLA-B*07:02 = assay: IEDB peptide-MHC binding, purified MHC/competitive/fluorescence; ≥ and ≤ were set here for values at or beyond the usual limits of such assays; details: source organism: Zaire ebolavirus
[11] = source organism: Zaire ebolavirus
[12] = source organism: Sudan ebolavirus
[13] = source organism: Vaccinia virus Copenhagen
[14] = source organism: Vaccinia virus

Sequence: QVEQHHRRT
- pIC50 (HLA-A*02:01 [1]; [11]): ≤ 3.60
- pIC50 (HLA-A*03:01 [2]; [11]): 5.51
- pIC50 (HLA-A*11:01; [11]): 6.26

Sequence: GTGPCPGDY
- pIC50 (HLA-A*01:01 [3]; [12]): 4.97
- pIC50 (HLA-A*11:01; [12]): ≤ 3.94

Sequence: RSDGYFLKI
- pIC50 (HLA-A*01:01 [3]; [13]): 5.47
- pIC50 (HLA-A*02:01 [1]; [13]): 5.31
- pIC50 (HLA-A*24:02; [13]): 4.79

Sequence: TPFGQQRVF
- pKd (HLA-B*51:01 [4]; source organism: Dengue virus 1 Singapore/S275/1990): ≤ 4.70
- pKd (HLA-B*35:01): 7.32
- pKd (HLA-B*53:01): 6.58

Sequence: TENTSSYYA
- pIC50 (HLA-A*01:01 [3]; [12]): ≤ 3.85

Sequence: YYATSYLEY
- pIC50 (HLA-A*01:01 [3]; [12]): ≤ 3.96
- pIC50 (HLA-B*15:01 [5]; [12]): ≤ 3.61
- pIC50 (HLA-A*24:02; [12]): 6.17

Sequence: THKLSLTKL
- pIC50 (HLA-A*03:01 [2]; source organism: Variola virus): ≤ 3.83
- pIC50 (HLA-A*11:01; source organism: Variola virus): 4.34

Sequence: LFLESGAVK
- pIC50 (HLA-A*03:01 [2]; [11]): ≤ 3.72
- pIC50 (HLA-A*24:02; [11]): 4.82
- pIC50 (HLA-A*11:01; [11]): 4.16

Sequence: LIIDEVHEH
- pIC50 (HLA-B*15:01 [5]; source organism: Variola virus): ≤ 3.89
- pIC50 (HLA-A*02:01 [1]; source organism: Variola virus): ≤ 4.00
- pIC50 (HLA-A*11:01; source organism: Variola virus): 4.16

Sequence: SMRDQRKGR
- pIC50 (HLA-A*03:01 [2]; source organism: Variola virus): 5.20

Sequence: HKNKFMAIL
- pIC50 (HLA-B*15:01 [5]; [11]): ≤ 3.35
- pIC50 (HLA-A*02:01 [1]; [11]): ≤ 3.11
- pIC50 (HLA-B*08:01; [11]): 4.37
- pIC50 (HLA-A*24:02; [11]): 4.29

Sequence: KQKFPYEGG
- pIC50 (HLA-B*15:01 [5]; [14]): ≤ 3.63

Sequence: TTEANAGQF
- pKd (HLA-A*01:01 [6]): ≤ 4.70
- pKd (HLA-A*68:02): ≤ 4.70
- pKd (HLA-A*02:11): ≤ 4.70
- pKd (HLA-A*24:03): ≤ 4.70
- pKd (HLA-A*02:19): ≤ 4.70
- pKd (HLA-A*23:01): ≤ 4.70
- pKd (HLA-A*02:12): ≤ 4.70
- pKd (HLA-A*03:01 [7]): ≤ 4.70
- pKd (HLA-A*02:03): ≤ 4.70
- pKd (HLA-A*02:16): ≤ 4.70
- pIC50 (HLA-A*01:01 [3]; [11]): ≤ 3.96
- pIC50 (HLA-A*24:02; [11]): 4.66
- pKd (HLA-B*27:03): ≤ 4.70
- pKd (HLA-A*69:01): ≤ 4.70
- pKd (HLA-A*26:01): ≤ 4.70
- pKd (HLA-A*02:01 [8]): ≤ 4.70
- pKd (HLA-B*51:01 [9]): ≤ 4.70
- pKd (HLA-B*46:01): ≤ 4.70
- pKd (HLA-B*39:01): ≤ 4.70
- pKd (HLA-B*57:01): ≤ 4.70

Sequence: YTEGLMHNQ
- pIC50 (HLA-A*01:01 [3]; [12]): ≤ 3.87

Sequence: STHNTPVYK
- pIC50 (HLA-A*02:01 [1]; [11]): ≤ 3.49
- pIC50 (HLA-A*03:01 [2]; [11]): 5.30
- pIC50 (HLA-A*24:02; [11]): ≤ 3.87
- pIC50 (HLA-A*11:01; [11]): 6.36

Sequence: KLLLWFNYL
- pIC50 (HLA-A*03:01 [2]; source organism: Variola virus): ≤ 3.16
- pIC50 (HLA-A*11:01; source organism: Variola virus): ≤ 3.85

Sequence: YQVNNLEEI
- pIC50 (HLA-B*15:01 [5]; [11]): 4.26
- pIC50 (HLA-A*02:01 [1]; [11]): 4.59
- pIC50 (HLA-A*24:02; [11]): 5.78

Sequence: SPSKLASAI
- pKd (HLA-B*51:01 [4]; source organism: Dengue virus): ≤ 4.70

Sequence: GQFLSFASL
- pKd (HLA-A*68:02): ≤ 4.70
- pKd (HLA-B*58:01): ≤ 4.70
- pKd (HLA-A*29:02): ≤ 4.70
- pKd (HLA-A*02:19): ≤ 4.70
- pKd (HLA-B*15:01 [10]): 7.49
- pKd (HLA-B*27:05): 6.82
- pKd (HLA-A*03:01 [7]): ≤ 4.70
- pIC50 (HLA-B*15:01 [5]; [11]): 5.90
- pIC50 (HLA-A*02:01 [1]; [11]): 5.47
- pIC50 (HLA-A*24:02; [11]): 4.71
- pKd (HLA-B*27:03): ≤ 4.70
- pKd (HLA-A*69:01): ≤ 4.70
- pKd (HLA-A*26:01): ≤ 4.70
- pKd (HLA-B*51:01 [9]): ≤ 4.70
- pKd (HLA-B*57:01): ≤ 4.70

Sequence: FQRTFSIPL
- pIC50 (HLA-B*15:01 [5]; [11]): 5.66
- pIC50 (HLA-B*07:02): 5.41
- pIC50 (HLA-A*02:01 [1]; [11]): 5.45
- pIC50 (HLA-B*08:01; [11]): 5.26
- pIC50 (HLA-A*24:02; [11]): 4.33

Sequence: KPVPNRSTK
- pIC50 (HLA-B*07:02): 4.51
- pIC50 (HLA-A*03:01 [2]; [11]): ≤ 3.78
- pIC50 (HLA-A*11:01; [11]): ≤ 3.94

Sequence: QQYAESREL
- pIC50 (HLA-B*15:01 [5]; [11]): 4.80
- pIC50 (HLA-B*07:02): ≤ 3.87
- pIC50 (HLA-A*02:01 [1]; [11]): 4.23
- pIC50 (HLA-A*24:02; [11]): ≤ 4.14

Sequence: ESDMDYHKI
- pIC50 (HLA-A*01:01 [3]; [11]): ≤ 3.93
- pIC50 (HLA-A*24:02; [11]): ≤ 3.96

Sequence: GCLRIQSLM
- pIC50 (HLA-B*15:01 [5]; [14]): ≤ 3.23
- pIC50 (HLA-A*02:01 [1]; [14]): 5.02
- pIC50 (HLA-B*08:01; [14]): ≤ 3.16
